According to publication PMC4945142 (Molecular Biology of the Cell, 2016):
Several values for one entry are separate records, joined by “and”; a condition that tells them apart may be missing. Identical values can stand only once. Blank lines part the entries; values can stand above or below the molecule they belong to.

Legend:
[1] = molecular target: E. coli-expressed GST-Spc110p^1-220 (budding yeast) (UniProt P32380); experiment: SEC-MALS
[2] = molecular target: γ-tubulin small complex (γTuSC) with γ-tubulin^S48C/S153C, Spc97-YFP and Spc98-CFP (budding yeast) (UniProt P53378); experiment: FRET or BRET
[3] = molecular target: the molecule itself; experiment: SEC-MALS

stoichiometry N [1]: 2 and 4
Molecule: E. coli-expressed GST-Spc110p^1-220 (from UniProt P32380 1-220) (domain or fragment)

Molecule: Spc110p^1-220 tetramer (Spc110p^1-220 fused with the tetramer-forming mutant coiled-coil domain of GCN4, GCN4-LI) (from UniProt P32380 1-220)
Kd [2]: 4 nM | Kd2 (Spc110p tetramer with a single γTuSC) [2]: 43 nM | Kd3 (a second γTuSC binding to the complex of Spc110p tetramer and one γTuSC) [2]: 3 nM

B1: Untagged Spc110p^1-220 (domain or fragment, budding yeast, UniProt P32380 1-220, looked up)
chain: MDEASHLPNGSLKNMEFTPVGFIKSKRNTTQTQVVSPTKVPNANNGDENEGPVKKRQRRSIDDTIDSTRLFSEASQFDDSFPEIKANIPPSPRSGNVDKSRKRNLIDDLKKDVPMSQPLKEQEVREHQMKKERFDRALESKLLGKRHITYANSDISNKELYINEIKSLKHEIKELRKEKNDTLNNYDTLEEETDDLKNRLQALEKELDAKNKIVNSRKVD
stoichiometry N [3]: 2
